Laboratory results taken from patent publication US20170189504A1.

Target: HLA-A*24 (human)
Test: UV-ligand exchange, anti-b2m ELISA

Binder	peptide exchange yield
RYAEEVGIF [SEQ ID NO: 199 peptide …]	50 to 75%
YYGPSLFLL [SEQ ID NO: 200 peptide …]	50 to 75%
IYATEAHVF [SEQ ID NO: 201 peptide …]	50 to 75%
VYWDSAGAAHF [SEQ ID NO: 202 peptide …]	> 75%
TYELRYFQI [SEQ ID NO: 204 peptide …]	> 75%
AYVVFVSTL [SEQ ID NO: 207 peptide …]	20 to 49%
TYKDEGNDYF [SEQ ID NO: 209 peptide …]	50 to 75%
YYKSTSSAF [SEQ ID NO: 218 peptide …]	50 to 75%
TFSVSSHLF [SEQ ID NO: 222 peptide …]	50 to 75%
QYLGQIQHI [SEQ ID NO: 268 peptide …]	50 to 75%
YFIDSTNLKTHF [SEQ ID NO: 269 peptide …]	50 to 75%
NYYEVHKELF [SEQ ID NO: 270 peptide …]	50 to 75%
VYQGHTALL [SEQ ID NO: 277 peptide …]	> 75%
PYRLIFEKF [SEQ ID NO: 281 peptide …]	20 to 49%
HYPPVQVLF [SEQ ID NO: 285 peptide …]	50 to 75%
LYITEPKTI [SEQ ID NO: 287 peptide …]	50 to 75%
